According to patent US20250296971A1, “GASTRIC INHIBITORY PEPTIDE RECEPTOR LIGANDS” (priority 2021, published 2025):
One block for each binder: values may come before it. *1 amine or outer side, *2 acyl side, *3 side chain or, on linkers, in order; H or OH if unused. Bridges are numbered along the chain shown (N, C = ends). Primed or numbered codes have the meaning given here. Where no end group is shown, it is not given here. [ ]: non-standard residue; d: D form. The star is where a group is joined. Ttds = 1,13-diamino-4,7,10-trioxatridecan-succinamic acid, NCCCOCCOCCOCCCNC(=O)CCC(=O)*; 2,6‑lutidylidene = 2Lut, Cys-Cys crosslink via 2,6-lutidylidene; tMeBn(DOTA-PP) = mesitylene bridge bearing DOTA via piperazine; APAc″ = 4-amino-1-carboxymethylpiperidine, NC1CCN(CC(=O)*)CC1; dE(AGLU) = D-glutamic acid bearing 1-amino-1-deoxy-D-glucitol; MeO36PEG = monodisperse PEG 36 units conjugated with acetyl; Pro(trans-4-NH2) = O=C([C@@H]1C[C@@H](N[*:3])CN1[*:1])[*:2]; DOTA = O=C(O)CN1CCN(CC(=O)O)CCN(CC(=O)*)CCN(CC(=O)O)CC1; 2Lut = 2,6-lutidylidene bridge between two thiols; Trp(5-Cl) = N[C@@H](Cc1c[nH]c2ccc(Cl)cc12)C(=O)O; Phe(3,5-Cl2) = N[C@@H](Cc1cc(Cl)cc(Cl)c1)C(=O)O; Pyridine(2,6-diCH2) = c1cc(C[*:1])nc(C[*:2])c1; 2Lut″ = 2,6-lutidylidene linking two thiols; APAc = 4-amino-1-carboxymethylpiperidine; Phe(2-Cl) = N[C@@H](Cc1ccccc1Cl)C(=O)O; 1Nal = N[C@@H](Cc1cccc2ccccc12)C(=O)O; mXylylene = c1cc(C[*:1])cc(C[*:2])c1; Glutaryl = O=C(CCCC(=O)[*:2])[*:1]; AGLU = 1-amino-1-deoxy-D-glucitol; Hyp = O=C(O)[C@@H]1C[C@@H](O)CN1; Suc = O=C(CCC(=O)[*:2])[*:1]; hLeu = CC(C)CC[C@H](N)C(=O)O; 2Lut(3) = 2,6-lutidylidene; dDab = NCC[C@@H](N)C(=O)O; Api = NC1(C(=O)O)CCNCC1; Thp = NC1(C(=O)O)CCOCC1; Aib = CC(C)(N)C(=O)O

Assays:
[1] = biological target: human Gastric Inhibitory Peptide Receptor (GIPR) (human) (UniProt P48546); experiment: FACS competition vs biotinylated GIP-057 on CHO-K1-hGIPR cells; category B: pIC50 7.1-8.0
[2] = biological target: human Gastric Inhibitory Peptide Receptor (human) (UniProt P48546); experiment: FACS competition with GIP-057 on CHO-K1-hGIPR cells; pIC50 category B: 7.1-8.0
Chain of human Gastric Inhibitory Peptide Receptor (human) (P48546 22-466 limits assumed): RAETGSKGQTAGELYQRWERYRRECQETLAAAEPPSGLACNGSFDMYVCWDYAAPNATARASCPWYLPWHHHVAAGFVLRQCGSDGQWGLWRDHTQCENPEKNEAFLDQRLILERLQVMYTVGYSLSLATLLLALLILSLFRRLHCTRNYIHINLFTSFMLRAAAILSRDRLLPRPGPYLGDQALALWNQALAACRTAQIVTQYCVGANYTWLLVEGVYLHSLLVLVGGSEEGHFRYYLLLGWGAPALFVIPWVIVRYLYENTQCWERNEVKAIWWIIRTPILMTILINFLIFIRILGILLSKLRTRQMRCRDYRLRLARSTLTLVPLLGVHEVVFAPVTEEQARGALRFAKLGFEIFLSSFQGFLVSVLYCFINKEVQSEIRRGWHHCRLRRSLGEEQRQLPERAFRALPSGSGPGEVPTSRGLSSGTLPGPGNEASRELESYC

Chain of human Gastric Inhibitory Peptide Receptor (GIPR) (human) (P48546 22-466 limits assumed): as above

- pIC50 [1]: 7.1 to 8 pic50
Binder: Ac-DW[Trp(5-Cl)][Hyp]E[dL]C[Thp]LFC-{(dK)(DOTA)-NH2} (linker 7-11 via Pyridine(2,6-diCH2)) [Ac-Asp-Trp-5Clw-Hyp-Glu-leu-[Cys(2Lut)-Thp-Leu-Phe-Cys]-lys(DOTA)-NH2]

- pIC50 [1]: 7.1 to 8 pic50
Binder: Ac-DW[Trp(5-Cl)][Hyp]F[dL]C[Thp]LIC-NH2 (linker 7-11 via Pyridine(2,6-diCH2)) [Ac-Asp-Trp-5Clw-Hyp-Phe-leu-[Cys(2Lut)-Thp-Leu-Ile-Cys]-NH2]

- pIC50 [1]: 7.1 to 8 pic50
Binder: {DOTA-Ttds}-DW[Phe(3,5-Cl2)][Hyp]E[dL]C[Thp]LIC-NH2 (linker 7-11 via Pyridine(2,6-diCH2)) [DOTA-Ttds-Asp-Trp-Egn-Hyp-Glu-leu-[Cys(2Lut)-Thp-Leu-Ile-Cys]-NH2]

- pIC50 [1]: 7.1 to 8 pic50
Binder: Ac-D[Phe(2-Cl)][Trp(5-Cl)][Pro(trans-4-NH2)](DOTA)E[dL]C[Thp]LIC-NH2 (linker 7-11 via Pyridine(2,6-diCH2)) [Ac-Asp-Ocf-5Clw-Tap(DOTA)-Glu-leu-[Cys(2Lut)-Thp-Leu-Ile-Cys]-NH2]

- pIC50 [2]: 7.1 to 8 pic50
Binder: {MeO36PEG-APAc″}-DW[Trp(5-Cl)][Hyp]E[dL]C[Api](DOTA)LIC-{dE(AGLU)-NH2} (linker 7-11 via Pyridine(2,6-diCH2)) [MeO36PEG-APAc-Asp-Trp-5Clw-Hyp-Glu-leu-[Cys(2Lut)-Apc(DOTA)-Leu-Ile-Cys]-glu(AGLU)-NH2]

- pIC50 [2]: 7.1 to 8 pic50
Binder: {MeO36PEG-APAc}-DW[Trp(5-Cl)][Pro(trans-4-NH2)]E[dL]C[Api](DOTA)LIC-{APAc-dE(AGLU)-NH2} (linker 7-11 via Pyridine(2,6-diCH2)) [MeO36PEG-APAc-Asp-Trp-5Clw-Tap-Glu-leu-[Cys(2Lut)-Apc(DOTA)-Leu-Ile-Cys]-APAc-glu(AGLU)-NH2]

- pIC50 [1]: 7.1 to 8 pic50
Binder: {DOTA-Ttds}-D[Phe(2-Cl)][Trp(5-Cl)][Hyp]E[dL]C[Thp]LIC-NH2 (linker 7-11 via 2Lut(3)) [DOTA-Ttds-Asp-Ocf-5Clw-Hyp-Glu-leu-[Cys(2Lut)-Thp-Leu-Ile-Cys]-NH2]

- pIC50 [1]: 7.1 to 8 pic50
Binder: Ac-DW[Phe(2,3-Cl2)][Hyp]E[dL]C[Thp]LIC-NH2 (linker 7-11 via 2Lut″) [Ac-Asp-Trp-Egp-Hyp-Glu-leu-[Cys(2Lut)-Thp-Leu-Ile-Cys]-NH2]

- pIC50 [1]: 7.1 to 8 pic50
Binder: Ac-DW[Trp(5-Cl)][Hyp]P[dL]C[Thp]LIC-NH2 (linker 7-11 via Pyridine(2,6-diCH2)) [Ac-Asp-Trp-5Clw-Hyp-Pro-leu-[Cys(2Lut)-Thp-Leu-Ile-Cys]-NH2]

- pIC50 [2]: 7.1 to 8 pic50
Binder: {AGLU-Glutaryl-APAc″}-DW[Trp(5-Cl)][Hyp]E[dL]C[Api](DOTA)LIC (linker 7-11 via Pyridine(2,6-diCH2); not fully specified (C-terminus)) [AGLU-Glutar-APAc-Asp-Trp-5Clw-Hyp-Glu-leu-[Cys(2Lut)-Apc(DOTA)-Leu-Ile-Cys]-lys(MeO36PEG)-NH2]

- pIC50 [2]: 7.1 to 8 pic50
Binder: {AGLU-Glutaryl}-DW[Trp(5-Cl)][Pro(trans-4-NH2)]E[dL]C[dDab](DOTA)LIC-{APAc-dE(AGLU)-NH2} (linker 7-11 via 2,6‑lutidylidene) [AGLU-Glutar-Asp-Trp-5Clw-Tap-Glu-leu-[Cys(2Lut)-dab(DOTA)-Leu-Ile-Cys]-APAc-glu(AGLU)-NH2]

- pIC50 [1]: 7.1 to 8 pic50
Binder: Ac-DW[Trp(5-Cl)][Pro(trans-4-NH2)](DOTA)E[dL]C[Thp]LFC-NH2 (linker 7-11 via 2Lut″) [Ac-Asp-Trp-5Clw-Tap(DOTA)-Glu-leu-[Cys(2Lut)-Thp-Leu-Phe-Cys]-NH2]

- pIC50 [2]: 7.1 to 8 pic50
B1: HO-Succinyl-Trp-5Clw-Hyp-Glu-leu-[Cys(2Lut)-Thp-Leu-Ile-Cys]-APAc-lys(MeO2kDaPEGAc)-Lys(DOTA)-NH2 (peptide)
peptide: Suc-W[Trp(5-Cl)][Hyp]E[dL]C[Thp]LIC
modifications: linker 6-10 via 2Lut; not fully specified (C-terminus); printed as HO-Succinyl-Trp-5Clw-Hyp-Glu-leu-[Cys(2Lut)-Thp-Leu-Ile-Cys]-APAc-lys(MeO2kDaPEGAc)-Lys(DOTA)-NH2

- pIC50 [2]: 7.1 to 8 pic50
Binder: Ac-DW[Trp(5-Cl)][Hyp]E[dL]C[Thp]LIC-NH2 (linker 7-11 via tMeBn(DOTA-PP)) [Ac-Asp-Trp-5Clw-Hyp-Glu-leu-[Cys(tMeBn(DOTA-PP))-Thp-Leu-Ile-Cys]-NH2]

- pIC50 [2]: 7.1 to 8 pic50
Binder: {MeO36PEG-APAc}-DW[Trp(5-Cl)][Hyp]E[dL]C[Api](DOTA)LIC-{APAc-dE(AGLU)-NH2} (linker 7-11 via Pyridine(2,6-diCH2)) [MeO36PEG-APAc-Asp-Trp-5Clw-Hyp-Glu-leu-[Cys(2Lut)-Apc(DOTA)-Leu-Ile-Cys]-APAc-glu(AGLU)-NH2]

- pIC50 [1]: 7.1 to 8 pic50
Binder: Ac-DW[1Nal][Pro(trans-4-NH2)](DOTA)E[hLeu]C[Aib]LIC-NH2 (linker 7-11 via mXylylene) [Ac-Asp-Trp-1Ni-Tap(DOTA)-Glu-Hle-[Cys(3MeBn)-Aib-Leu-Ile-Cys]-NH2]

- pIC50 [2]: 7.1 to 8 pic50
Binder: {AGLU-Glutaryl}-DW[Trp(5-Cl)][Pro(trans-4-NH2)]E[dL]C[dK](DOTA)LIC-{APAc-dE(AGLU)-NH2} (linker 7-11 via Pyridine(2,6-diCH2)) [AGLU-Glutar-Asp-Trp-5Clw-Tap-Glu-leu-[Cys(2Lut)-lys(DOTA)-Leu-Ile-Cys]-APAc-glu(AGLU)-NH2]
